Square brackets hold non-standard residues; d marks the D form. Ends that are not written are not given here. Peptide text beside a SMILES is read from it. * marks the point of attachment. Piperazin2one(3S-Bu,6R-CO) = CCCC[C@@H]1NC[C@H](C(=O)*)NC1=O; X1 = N=C(N)NCCC[C@H]1C(=O)N[C@@H](C(N)=O)CN1*; keto‑piperazine surrogate = not defined here; Nle = CCCC[C@H](N)C(=O)O

The record followed here is patent US7795221B2, “Linear natriuretic peptide constructs” (Palatin Technologies, Inc., priority 2006, dated 2010).

Details of data set [1]: species or system Sprague-Dawley rats. To be noted: rat, in vivo, iv, 2 mg/kg. Here is the method:
. […] The total run time was 6 minutes.

Data set [2] concerns the target T1, human natriuretic peptide receptor A (human, UniProt P16066 33-1061).
T1 sequence (looked up): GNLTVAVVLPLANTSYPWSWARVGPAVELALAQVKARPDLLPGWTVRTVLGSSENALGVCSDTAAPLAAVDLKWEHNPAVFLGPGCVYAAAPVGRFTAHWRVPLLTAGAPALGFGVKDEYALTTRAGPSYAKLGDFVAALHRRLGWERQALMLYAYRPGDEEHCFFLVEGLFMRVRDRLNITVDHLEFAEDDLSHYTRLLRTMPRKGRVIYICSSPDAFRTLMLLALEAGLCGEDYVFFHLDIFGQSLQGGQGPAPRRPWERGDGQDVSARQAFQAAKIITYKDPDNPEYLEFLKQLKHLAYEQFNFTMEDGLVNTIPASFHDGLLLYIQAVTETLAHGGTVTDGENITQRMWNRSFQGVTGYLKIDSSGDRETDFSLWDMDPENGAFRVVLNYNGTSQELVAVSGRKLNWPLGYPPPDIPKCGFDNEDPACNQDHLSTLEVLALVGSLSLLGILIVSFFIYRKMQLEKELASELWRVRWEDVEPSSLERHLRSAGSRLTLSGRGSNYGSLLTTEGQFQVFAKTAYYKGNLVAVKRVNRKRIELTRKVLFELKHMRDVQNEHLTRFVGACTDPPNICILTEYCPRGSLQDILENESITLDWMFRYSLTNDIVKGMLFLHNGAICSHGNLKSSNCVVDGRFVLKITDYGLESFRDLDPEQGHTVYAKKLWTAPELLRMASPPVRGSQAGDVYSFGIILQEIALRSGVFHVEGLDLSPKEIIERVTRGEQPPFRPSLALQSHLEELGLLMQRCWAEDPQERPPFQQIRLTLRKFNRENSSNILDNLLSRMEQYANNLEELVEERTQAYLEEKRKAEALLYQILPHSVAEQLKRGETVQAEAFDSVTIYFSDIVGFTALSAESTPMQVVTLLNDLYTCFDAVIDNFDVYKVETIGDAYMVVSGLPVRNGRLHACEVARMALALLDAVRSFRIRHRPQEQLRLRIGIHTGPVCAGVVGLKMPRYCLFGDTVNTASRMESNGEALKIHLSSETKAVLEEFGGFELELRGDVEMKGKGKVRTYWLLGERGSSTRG
Nature of the data set: cell-based or functional assay.

The target of data set [3] is T1, human natriuretic peptide receptor A. Nature of the data set: competitive inhibition of [125I]-ANP binding to HEK-hNPRA membrane homogenates. Here is the method: Competitive binding assay. A competitive inhibition binding assay was performed using crude membrane homogenates prepared from HEK-hNPRA cells. To prepare membrane homogenates, cells were rinsed with phosphate-buffered saline and incubated for 15 minutes at 4° C. in hypotonic lysis buffer (10 mM Tris, pH 7.4+5 mM EDTA). Cells were transferred from plates to polypropylene tubes and homogenized. Homogenates were centrifuged at 25,000×g for 20 minutes. Pellets were resuspended in buffer consisting of 50 mM Tris (pH 7.4) and 1 mM EDTA, homogenized and centrifuged at 25,000×g for 20 minutes. Pellets were resuspended in buffer consisting of 100 mM Tris (pH 7.4) and 10 mM MgCl_2 and stored at −80° C. until needed. On the day of an assay, homogenates were thawed and homogenized. […] Assays were stopped by addition of cold wash buffer (phosphate-buffered saline) followed by filtration using a vacuum manifold. Bound radioactivity was determined using a gamma counter. […] Data were analyzed using GraphPad Prism® curve-fitting software.

For the molecule `CCCC[C@@H]1NC[C@H](C(=O)N[C@@H](C)C(=O)N[C@@H](Cc2c[nH]cn2)C(=O)N[C@@H](Cc2ccccc2)C(=O)NCC(=O)NCC(=O)N[C@@H](CCCNC(=N)N)C(=O)N[C@@H](CCCC)C(=O)N[C@@H](CC(=O)O)C(=O)N[C@@H](CCCNC(=N)N)C(=O)N[C@H](C(=O)N[C@@H](CO)C(=O)N[C@@H](C)C(=O)N[C@@H](Cc2ccc(O)cc2)C(=O)N2C[C@H](C(N)=O)NC(=O)[C@@H]2CCCNC(=N)N)[C@@H](C)CC)NC1=O` [Construct 1-30] ({Piperazin2one(3S-Bu,6R-CO)}-AHFGGR[Nle]DRISAY-X1), in data set [1], the AUC (as a rule, the area under the concentration-time curve, a measure of exposure) was found to be 0.139 µM·h; the Vd – broadly, a proportionality between amount in the body and measured concentration, not a real space – was determined as 0.6 L/kg; the clearance (commonly the rate of elimination divided by the concentration) was found to be 131 mL/min/kg; the half-life (commonly the time needed for the level to fall by half in the phase considered) was 6 min.

Consider [keto‑piperazine surrogate]AHFGGR[Nle]DRISAY[keto‑piperazine surrogate] (reading uncertain; also: further groups not given here, Linear synthetic construct) [Construct 1-30], for which the “EC50 (accumulation of intracellular cGMP)” value (“EC50” for short) in data set [2] was found to be 80.5 nM. The Ki (commonly the equilibrium dissociation constant of an inhibitor or competing ligand from its target) in data set [3] worked out at 8.7 nM.

In the case of [keto‑piperazine surrogate]AHFGGR[Nle]DRISAY[keto‑piperazine surrogate] (reading uncertain; also: further groups not given here, Linear synthetic construct) [Construct 1-49], in data set [2], the “EC50” value is around 12 nM. In data set [3], this molecule returned a Ki of 0.2 nM.

With [keto‑piperazine surrogate]AHFGGR[Nle]DRISAYR (reading uncertain; also: further groups not given here, Linear synthetic construct) [Construct 1-9], the “EC50” value in data set [2] is 550 nM. This molecule also registered a Ki in data set [3] of 14.5 nM.

B1: Construct 1-16 (peptide)
peptide: [Nle]AHFGGR[Nle]DRISAY[keto‑piperazine surrogate]
modifications: reading uncertain; also: further groups not given here
notes: Linear synthetic construct modelled on mini-ANP
B1: in data set [2], the “EC50” value came to 340 nM. In data set [3], this molecule showed a Ki of 88.5 nM.
